Numbered stars: 1 amine (or outer) side, 2 acyl side, 3 side chain; on linkers, the order of the positions; unused ones are H or OH. * marks the point of attachment. C20 diacid = O=C(O)CCCCCCCCCCCCCCCCCCC(=O)*; C18 diacid = O=C(O)CCCCCCCCCCCCCCCCC(=O)*; C16 diacid = O=C(O)CCCCCCCCCCCCCCC(=O)*; γGlu = O=C(O)[C@H](CCC(=O)[*:2])N[*:1]; AEEA = NCCOCCOCC(=O)O
T1: human amylin 3(a) receptor (human calcitonin receptor co-expressed with RAMP-3) (human, UniProt P30988 25-474; O60896 24-148, limits assumed)
T1 sequence (looked up) 1: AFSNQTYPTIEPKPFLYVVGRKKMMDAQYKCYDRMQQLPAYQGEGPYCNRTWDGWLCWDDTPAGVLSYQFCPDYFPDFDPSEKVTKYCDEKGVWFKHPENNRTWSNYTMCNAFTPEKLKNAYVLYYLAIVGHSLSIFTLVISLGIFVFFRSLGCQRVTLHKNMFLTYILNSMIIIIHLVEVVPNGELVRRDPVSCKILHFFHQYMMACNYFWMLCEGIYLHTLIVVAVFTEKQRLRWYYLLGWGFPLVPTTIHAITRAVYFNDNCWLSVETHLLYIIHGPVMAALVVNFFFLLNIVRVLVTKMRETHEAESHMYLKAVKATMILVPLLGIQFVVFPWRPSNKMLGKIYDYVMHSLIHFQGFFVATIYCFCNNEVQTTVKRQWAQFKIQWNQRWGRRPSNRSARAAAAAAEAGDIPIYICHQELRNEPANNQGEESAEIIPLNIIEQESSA
T1 sequence (looked up) 2: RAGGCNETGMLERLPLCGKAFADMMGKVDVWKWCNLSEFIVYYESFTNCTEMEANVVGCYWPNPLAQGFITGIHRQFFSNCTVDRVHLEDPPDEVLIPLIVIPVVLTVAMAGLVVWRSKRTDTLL

T2: human calcitonin receptor (human, UniProt P30988 25-474)
T2 sequence (looked up): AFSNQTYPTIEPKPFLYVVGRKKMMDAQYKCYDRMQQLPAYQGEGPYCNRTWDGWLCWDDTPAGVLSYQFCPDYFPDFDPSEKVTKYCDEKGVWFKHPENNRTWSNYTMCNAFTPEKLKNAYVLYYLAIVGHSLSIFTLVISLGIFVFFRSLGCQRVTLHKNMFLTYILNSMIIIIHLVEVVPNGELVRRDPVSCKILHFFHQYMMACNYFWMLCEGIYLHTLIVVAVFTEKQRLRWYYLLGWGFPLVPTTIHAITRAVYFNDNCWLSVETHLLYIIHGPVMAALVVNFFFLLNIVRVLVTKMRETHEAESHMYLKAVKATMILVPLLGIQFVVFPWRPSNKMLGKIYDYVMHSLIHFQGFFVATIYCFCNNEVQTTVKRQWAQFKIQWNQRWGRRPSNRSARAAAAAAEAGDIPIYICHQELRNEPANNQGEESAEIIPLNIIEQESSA

T3: human calcitonin receptor on BHK570/CRE-luc cells (human, UniProt P30988 25-474)
T3 sequence (looked up): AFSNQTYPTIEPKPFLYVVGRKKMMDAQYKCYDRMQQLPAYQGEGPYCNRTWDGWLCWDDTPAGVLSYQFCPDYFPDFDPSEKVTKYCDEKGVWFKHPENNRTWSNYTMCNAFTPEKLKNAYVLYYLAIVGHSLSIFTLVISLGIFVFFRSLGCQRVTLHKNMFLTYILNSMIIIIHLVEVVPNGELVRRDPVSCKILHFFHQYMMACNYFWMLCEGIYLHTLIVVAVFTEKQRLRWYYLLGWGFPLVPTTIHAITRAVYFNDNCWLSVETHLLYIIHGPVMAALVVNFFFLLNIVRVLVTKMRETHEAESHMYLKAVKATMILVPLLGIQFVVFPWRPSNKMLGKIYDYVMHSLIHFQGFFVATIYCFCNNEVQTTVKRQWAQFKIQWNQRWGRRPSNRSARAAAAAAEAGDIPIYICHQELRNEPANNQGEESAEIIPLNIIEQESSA

T4: human amylin 3(a) receptor (human calcitonin receptor co-expressed with RAMP-3) on BHK570/CRE-luc cells (human, UniProt P30988 25-474; O60896 24-148)
T4 sequence (looked up) 1: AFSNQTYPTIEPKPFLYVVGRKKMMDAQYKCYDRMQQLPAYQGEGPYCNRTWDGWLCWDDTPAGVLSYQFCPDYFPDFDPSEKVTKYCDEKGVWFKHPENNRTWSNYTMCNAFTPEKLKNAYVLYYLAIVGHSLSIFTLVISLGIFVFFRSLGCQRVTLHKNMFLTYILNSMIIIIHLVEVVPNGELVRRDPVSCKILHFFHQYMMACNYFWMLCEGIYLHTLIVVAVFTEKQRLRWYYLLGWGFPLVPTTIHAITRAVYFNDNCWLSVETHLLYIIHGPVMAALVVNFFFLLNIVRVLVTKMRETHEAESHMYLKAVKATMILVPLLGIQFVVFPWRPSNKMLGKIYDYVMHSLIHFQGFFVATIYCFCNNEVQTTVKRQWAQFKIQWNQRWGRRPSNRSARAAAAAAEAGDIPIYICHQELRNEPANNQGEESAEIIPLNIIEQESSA
T4 sequence (looked up) 2: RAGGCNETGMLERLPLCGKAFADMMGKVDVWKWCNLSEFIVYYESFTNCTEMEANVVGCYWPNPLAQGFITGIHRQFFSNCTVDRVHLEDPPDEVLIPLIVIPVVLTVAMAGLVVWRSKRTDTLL


What was measured:
Assay in all cases: cell-based or functional assay
[1] = target: T1, human amylin 3(a) receptor (human …)
[2] = target: T2, human calcitonin receptor
[3] = target: T3, human calcitonin receptor on …
[4] = target: T4, human amylin 3(a) receptor (human …)

Binder | hAmylin-R funct. EC50 (pM) [1] | hCTR funct. EC50 (pM) [2] | hCTR funct. EC50 (pM), tested with HSA [3] | hAmylin-R funct. EC50 (pM), tested with HSA [4]
{C18 diacid-γGlu}-ASELSTAALGRLSAELHELATLPRTETGSGSP-NH2 [[N-terminal(C18 diacid-gGlu), des1, 30S, 31G]mimylin] | 16 pM | 17 pM |  | 
{C20 diacid}-EASELSTAALGRLSAELHELATLPRTETGSGSP-NH2 [[N-terminal(C20 diacid), 30S, 31G]mimylin] |  |  | 26 pM | 61 pM
{C20 diacid-γGlu-AEEA-AEEA-AEEA-AEEA-AEEA}-ASELSTAALGRLSAELHELATLPRTETGSGSP-NH2 [[N-terminal(C20 diacid-gGlu-5xOEG), des1, 30S, 31G]mimylin] | 15 pM | 10 pM |  | 
{C20 diacid-γGlu-AEEA-AEEA}-ASELSTAALGRLSAELHELATLPRTETGSGSP-NH2 [[N-terminal(C20 diacid-gGlu-2xOEG), des1, 30S, 31G]mimylin] | 17 pM | 12 pM |  | 
{C20 diacid-γGlu-AEEA-AEEA-AEEA-AEEA}-ASELSTAALGRLSAELHELATLPRTETGSGSP-NH2 [[N-terminal(C20 diacid-gGlu-4xOEG), des1, 30S, 31G]mimylin] | 24 pM | 13 pM |  | 
{C20 diacid-γGlu-AEEA}-ASELSTAALGRLSAELHELATLPRTETGSGSP-NH2 [[N-terminal(C20 diacid-gGlu-OEG), des1, 30S, 31G]mimylin] | 27 pM | 18 pM |  | 
{C18 diacid}-EASELSTAALGRLSAELHELATLPRTETGSGSP-NH2 [[N-terminal(C18 diacid), 30S, 31G]mimylin] |  |  | 19 pM | 39 pM
{C18 diacid-γGlu}-ASELSTAALGRLSAELHELATLPRTETGSESP-NH2 (SMILES CC(C)C[C@H](NC(=O)[C@H](C)NC(=O)[C@H](C)NC(=O)[C@@H](NC(=O)[C@H](CO)NC(=O)[C@H](CC(C)C)NC(=O)[C@H](CCC(=O)O)NC(=O)[C@H](CO)NC(=O)[C@H](C)NC(=O)CC[C@H](NC(=O)CCCCCCCCCCCCCCCCC(=O)O)C(=O)O)[C@@H](C)O)C(=O)NCC(=O)N[C@@H](CCCNC(=N)N)C(=O)N[C@@H](CC(C)C)C(=O)N[C@@H](CO)C(=O)N[C@@H](C)C(=O)N[C@@H](CCC(=O)O)C(=O)N[C@@H](CC(C)C)C(=O)N[C@@H](Cc1c[nH]cn1)C(=O)N[C@@H](CCC(=O)O)C(=O)N[C@@H](CC(C)C)C(=O)N[C@@H](C)C(=O)N[C@H](C(=O)N[C@@H](CC(C)C)C(=O)N1CCC[C@H]1C(=O)N[C@@H](CCCNC(=N)N)C(=O)N[C@H](C(=O)N[C@@H](CCC(=O)O)C(=O)N[C@H](C(=O)NCC(=O)N[C@@H](CO)C(=O)N[C@@H](CCC(=O)O)C(=O)N[C@@H](CO)C(=O)N1CCC[C@H]1C(N)=O)[C@@H](C)O)[C@@H](C)O)[C@@H](C)O) [[N-terminal(C18 diacid-gGlu), des1, 30S]mimylin] |  |  | 9 pM | 26 pM
{C20 diacid-γGlu-AEEA-AEEA-AEEA}-ASELSTAALGRLSAELHELATLPRTETGSGSP-NH2 [[N-terminal(C20 diacid-gGlu-3xOEG), des1, 30S, 31G]mimylin] | 18 pM | 11 pM |  | 
{C18 diacid}-ASELSTAALGRLSAELHELATLPRTETGSGSP-NH2 [[N-terminal(C18 diacid), des1, 30S, 31G]mimylin] | 18 pM | 17 pM |  | 
{C16 diacid-γGlu}-ASELSTAALGRLSAELHELATLPRTETGSGSP-NH2 [[N-terminal(C16 diacid-gGlu), des1, 30S, 31G]mimylin] | 18 pM | 15 pM |  | 

From US20160272683A1 (Novo Nordisk, published 2016)
